Experimental data: IntAct's records for PubMed 7536190

B1: Tumor necrosis factor receptor superfamily member 6 (Mus musculus), P25446 (parent)
chain: MLWIWAVLPLVLAGSQLRVHTQGTNSISESLKLRRRVRETDKNCSEGLYQGGPFCCQPCQPGKKKVEDCKMNGGTPTCAPCTEGKEYMDKNHYADKCRRCTLCDEEHGLEVETNCTLTQNTKCKCKPDFYCDSPGCEHCVRCASCEHGTLEPCTATSNTNCRKQSPRNRLWLLTILVLLIPLVFIYRKYRKRKCWKRRQDDPESRTSSRETIPMNASNLSLSKYIPRIAEDMTIQEAKKFARENNIKEGKIDEIMHDSIQDTAEQKVQLLLCWYQSHGKSDAYQDLIKGLKKAECRRTLDKFQDMVQKDLGKSTPDTGNENEGQCLE

Variants of: B1
Conditions: with fadd_human FADD

Variant | effect of a mutation on the interaction
MLWIWAVLPLVLAGSQLRVHTQGTNSISESLKLRRRVRETDKNCSEGLYQGGPFCCQPCQPGKKKVEDCKMNGGTPTCAPCTEGKEYMDKNHYADKCRRCTLCDEEHGLEVETNCTLTQNTKCKCKPDFYCDSPGCEHCVRCASCEHGTLEPCTATSNTNCRKQSPRNRLWLLTILVLLIPLVFIYRKYRKRKCWKRRQDDPESRTSSRETIPMNASNLSLSKYDPRIAEDMTIQEAKKFARENNIKEGKIDEIMHDSIQDTAEQKVQLLLCWYQSHGKSDAYQDLIKGLKKAECRRTLDKFQDMVQKDLGKSTPDTGNENEGQCLE [I225D] | decreasing interaction

Variants of: B1
Conditions: with tnr6_human FAS

Variant | effect of a mutation on the interaction
MLWIWAVLPLVLAGSQLRVHTQGTNSISESLKLRRRVRETDKNCSEGLYQGGPFCCQPCQPGKKKVEDCKMNGGTPTCAPCTEGKEYMDKNHYADKCRRCTLCDEEHGLEVETNCTLTQNTKCKCKPDFYCDSPGCEHCVRCASCEHGTLEPCTATSNTNCRKQSPRNRLWLLTILVLLIPLVFIYRKYRKRKCWKRRQDDPESRTSSRETIPMNASNLSLSKYDPRIAEDMTIQEAKKFARENNIKEGKIDEIMHDSIQDTAEQKVQLLLCWYQSHGKSDAYQDLIKGLKKAECRRTLDKFQDMVQKDLGKSTPDTGNENEGQCLE [I225D] | decreasing interaction
